Experiments:
HeLa Kyoto [1] = experiment: solubility change mitosis vs G1/S (difference of NP-40 vs SDS log2 ratios) (log2 ratio difference); higher = more soluble in mitosis
HeLa Kyoto [2] = experiment: melting temperature (median over replicates), in situ; higher = more thermally stable
HeLa Kyoto [3] = experiment: solubility in G1/S (NP-40 vs SDS abundance) (log2 ratio); higher = more soluble; details: cell cycle stage: G1/S
HeLa Kyoto [4] = experiment: thermal stability score vs G1/S (z-score of summed log2 fold changes over temperatures); higher = more thermally stable than in G1/S
[5] = cell cycle stage: early G1 (4.5 h after nocodazole release)
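For melting temperature (median over replicates), in situ in this document: HeLa Kyoto cells synchronized by double thymidine or nocodazole block, proteins quantified by TMT10plex mass spectrometry, three independent biological replicates.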
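For solubility change mitosis vs G1/S (difference of NP-40 vs SDS log2 ratios) in this document: synchronized HeLa Kyoto cells (double thymidine block for G1/S, nocodazole release for mitosis), protein amounts in NP-40 versus SDS lysates quantified by mass spectrometry, three biological replicates.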
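For solubility in G1/S (NP-40 vs SDS abundance) in this document: HeLa Kyoto cells arrested at G1/S by double thymidine block, proteins quantified by TMT10plex mass spectrometry in mild NP-40 versus SDS extracts, three biological replicates.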
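For thermal stability score vs G1/S (z-score of summed log2 fold changes over temperatures) in this document: synchronized HeLa Kyoto cells, proteins quantified by TMT10plex mass spectrometry, three biological replicates, mitosis taken 0.5 h after nocodazole release, G1/S directly after double thymidine block.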

| Sequence | solubility change mitosis (log2) (HeLa Kyoto [1]) | melting temperature (HeLa Kyoto [2]; cell cycle stage: G1/S) [°C] | solubility in G1/S (log2) (HeLa Kyoto [3]) | thermal stability score (HeLa Kyoto [4]; [5]) | thermal stability score (HeLa Kyoto [4]; cell cycle stage: mitosis) | melting temperature (HeLa Kyoto [2]; cell cycle stage: mitosis) [°C] |
| --- | --- | --- | --- | --- | --- | --- |
| MAGARAAAAAASAGSSASSGNQPPQELGLGELLEEFSRTQYRAKDGSGTGGSKVERIEKRCLELFGRDYCFSVIPNTNGDICGHYPRHIVFLEYESSEKEKDTFESTVQVSKLQDLIHRSKMARCRGRFVCPVILFKGKHICRSATLAGWGELYGRSGYNYFFSGGADDAWADVEDVTEEDCALRSGDTHLFDKVRGYDIKLLRYLSVKYICDLMVENKKVKFGMNVTSSEKVDKAQRYADFTLLSIPYPGCEFFKEYKDRDYMAEGLIFNWKQDYVDAPLSIPDFLTHSLNIDWSQYQCWDLVQQTQNYLKLLLSLVNSDDDSGLLVHCISGWDRTPLFISLLRLSLWADGLIHTSLKPTEILYLTVAYDWFLFGHMLVDRLSKGEEIFFFCFNFLKHITSEEFSALKTQRRKSLPARDGGFTLEDICMLRRKDRGSTTSLGSDFSLVMESSPGATGSFTYEAVELVPAGAPTQAAWRKSHSSSPQSVLWNRPQPSEDRLPSQQGLAEARSSSSSSSNHSDNFFRMGSSPLEVPKPRSVDHPLPGSSLSTDYGSWQMVTGCGSIQERAVLHTDSSLPFSFPDELPNSCLLAALSDRETRLQEVRSAFLAAYSSTVGLRAVAPSPSGAIGGLLEQFARGVGLRSISSNAL [MTMR14] | -0.0972 | 52.8 | -0.145 | -0.497 | -0.428 | – |
| MAGASVKVAVRVRPFNARETSQDAKCVVSMQGNTTSIINPKQSKDAPKSFTFDYSYWSHTSTEDPQFASQQQVYRDIGEEMLLHAFEGYNVCIFAYGQTGAGKSYTMMGRQEPGQQGIVPQLCEDLFSRVSENQSAQLSYSVEVSYMEIYCERVRDLLNPKSRGSLRVREHPILGPYVQDLSKLAVTSYADIADLMDCGNKARTVAATNMNETSSRSHAVFTIVFTQRCHDQLTGLDSEKVSKISLVDLAGSERADSSGARGMRLKEGANINKSLTTLGKVISALADMQSKKRKSDFIPYRDSVLTWLLKENLGGNSRTAMIAALSPADINYEETLSTLRYADRTKQIRCNAIINEDPNARLIRELQEEVARLRELLMAQGLSASALEGLKTEEGSVRGALPAVSSPPAPVSPSSPTTHNGELEPSFSPNTESQIGPEEAMERLQETEKIIAELNETWEEKLRKTEALRMEREALLAEMGVAVREDGGTVGVFSPKKTPHLVNLNEDPLMSECLLYHIKDGVTRVGQVDMDIKLTGQFIREQHCLFRSIPQPDGEVVVTLEPCEGAETYVNGKLVTEPLVLKSGNRIVMGKNHVFRFNHPEQARLERERGVPPPPGPPSEPVDWNFAQKELLEQQGIDIKLEMEKRLQDLENQYRKEKEEADLLLEQQRLYADSDSGDDSDKRSCEESWRLISSLREQLPPTTVQTIVKRCGLPSSGKRRAPRRVYQIPQRRRLQGKDPRWATMADLKMQAVKEICYEVALADFRHGRAEIEALAALKMRELCRTYGKPDGPGDAWRAVARDVWDTVGEEEGGGAGSGGGSEEGARGAEVEDLRAHIDKLTGILQEVKLQNSSKDRELQALRDRMLRMERVIPLAQDHEDENEEGGEVPWAPPEGSEAAEEAAPSDRMPSARPPSPPLSSWERVSRLMEEDPAFRRGRLRWLKQEQLRLQGLQGSGGRGGGLRRPPARFVPPHDCKLRFPFKSNPQHRESWPGMGSGEAPTPLQPPEEVTPHPATPARRPPSPRRSHHPRRNSLDGGGRSRGAGSAQPEPQHFQPKKHNSYPQPPQPYPAQRPPGPRYPPYTTPPRMRRQRSAPDLKESGAAV [KIF1C] | -0.0384 | 48.5 | -0.0137 | 0.369 | 0.754 | 50.2 |
| MAGDLSAGFFMEELNTYRQKQGVVLKYQELPNSGPPHDRRFTFQVIIDGREFPEGEGRSKKEAKNAAAKLAVEILNKEKKAVSPLLLTTTNSSEGLSMGNYIGLINRIAQKKRLTVNYEQCASGVHGPEGFHYKCKMGQKEYSIGTGSTKQEAKQLAAKLAYLQILSEETSVKSDYLSSGSFATTCESQSNSLVTSTLASESSSEGDFSADTSEINSNSDSLNSSSLLMNGLRNNQRKAKRSLAPRFDLPDMKETKYTVDKRFGMDFKEIELIGSGGFGQVFKAKHRIDGKTYVIKRVKYNNEKAEREVKALAKLDHVNIVHYNGCWDGFDYDPETSDDSLESSDYDPENSKNSSRSKTKCLFIQMEFCDKGTLEQWIEKRRGEKLDKVLALELFEQITKGVDYIHSKKLIHRDLKPSNIFLVDTKQVKIGDFGLVTSLKNDGKRTRSKGTLRYMSPEQISSQDYGKEVDLYALGLILAELLHVCDTAFETSKFFTDLRDGIISDIFDKKEKTLLQKLLSKKPEDRPNTSEILRTLTVWKKSPEKNERHTC [EIF2AK2] | -0.0511 | 47.1 | -0.283 | 1.01 | 3.12 | 48 |
| MAGFWVGTAPLVAAGRRGRWPPQQLMLSAALRTLKHVLYYSRQCLMVSRNLGSVGYDPNEKTFDKILVANRGEIACRVIRTCKKMGIKTVAIHSDVDASSVHVKMADEAVCVGPAPTSKSYLNMDAIMEAIKKTRAQAVHPGYGFLSENKEFARCLAAEDVVFIGPDTHAIQAMGDKIESKLLAKKAEVNTIPGFDGVVKDAEEAVRIAREIGYPVMIKASAGGGGKGMRIAWDDEETRDGFRLSSQEAASSFGDDRLLIEKFIDNPRHIEIQVLGDKHGNALWLNERECSIQRRNQKVVEEAPSIFLDAETRRAMGEQAVALARAVKYSSAGTVEFLVDSKKNFYFLEMNTRLQVEHPVTECITGLDLVQEMIRVAKGYPLRHKQADIRINGWAVECRVYAEDPYKSFGLPSIGRLSQYQEPLHLPGVRVDSGIQPGSDISIYYDPMISKLITYGSDRTEALKRMADALDNYVIRGVTHNIALLREVIINSRFVKGDISTKFLSDVYPDGFKGHMLTKSEKNQLLAIASSLFVAFQLRAQHFQENSRMPVIKPDIANWELSVKLHDKVHTVVASNNGSVFSVEVDGSKLNVTSTWNLASPLLSVSVDGTQRTVQCLSREAGGNMSIQFLGTVYKVNILTRLAAELNKFMLEKVTEDTSSVLRSPMPGVVVAVSVKPGDAVAEGQEICVIEAMKMQNSMTAGKTGTVKSVHCQAGDTVGEGDLLVELE [PCCA] | -0.122 | 53.7 | 0.0361 | -0.863 | -1.1 | 53.1 |
| MAGGGAGDPGLGAAAAPAPETREHLFKVLVIGELGVGKTSIIKRYVHQLFSQHYRATIGVDFALKVLNWDSRTLVRLQLWDIAGQERFGNMTRVYYKEAVGAFVVFDISRSSTFEAVLKWKSDLDSKVHLPNGSPIPAVLLANKCDQNKDSSQSPSQVDQFCKEHGFAGWFETSAKDNINIEEAARFLVEKILVNHQSFPNEENDVDKIKLDQETLRAENKSQCC [RAB32] | -0.0818 | 51.8 | -0.00216 | 4.46 | 2.79 | 53.4 |
| MAGIAAKLAKDREAAEGLGSHDRAIKYLNQDYEALRNECLEAGTLFQDPSFPAIPSALGFKELGPYSSKTRGIEWKRPTEICADPQFIIGGATRTDICQGALGDCWLLAAIASLTLNEEILARVVPLNQSFQENYAGIFHFQFWQYGEWVEVVVDDRLPTKDGELLFVHSAEGSEFWSALLEKAYAKINGCYEALSGGATTEGFEDFTGGIAEWYELKKPPPNLFKIIQKALQKGSLLGCSIDITSAADSEAITFQKLVKGHAYSVTGAEEVESNGSLQKLIRIRNPWGEVEWTGRWNDNCPSWNTIDPEERERLTRRHEDGEFWMSFSDFLRHYSRLEICNLTPDTLTSDTYKKWKLTKMDGNWRRGSTAGGCRNYPNTFWMNPQYLIKLEEEDEDEEDGESGCTFLVGLIQKHRRRQRKMGEDMHTIGFGIYEVPEELSGQTNIHLSKNFFLTNRARERSDTFINLREVLNRFKLPPGEYILVPSTFEPNKDGDFCIRVFSEKKADYQAVDDEIEANLEEFDISEDDIDDGFRRLFAQLAGEDAEISAFELQTILRRVLAKRQDIKSDGFSIETCKIMVDMLDSDGSGKLGLKEFYILWTKIQKYQKIYREIDVDRSGTMNSYEMRKALEEAGFKMPCQLHQVIVARFADDQLIIDFDNFVRCLVRLETLFKIFKQLDPENTGTIELDLISWLCFSVL [CAPN2] | -0.183 | 55.4 | -0.0212 | -0.784 | -1.57 | 54.9 |

Source: the supplement of paper PMC5998384
